One experiment has as its target ACE2 (human, UniProt Q9BYF1 18-740). Put plainly: SPR. (In SPR one partner is held on a chip, and binding of the other changes the refractive index at the surface.)
In experiment [1] the target is T1, SARS-CoV-2 membrane protein (SARS-CoV-2, UniProt P0DTC5 1-222). Briefly: SPR.
Experiment [2] has as its target T1, SARS-CoV-2 membrane protein. Put plainly: SPR. The source holds these as a separate data set.
Another experiment has as its target human ACE2 (human, UniProt Q9BYF1 18-740). Briefly: SPR.
A further experiment has as its target SARS-CoV-2 S1 RBD (SARS-CoV-2, UniProt P0DTC2 319-537). Briefly: competition.
Experiment [3] addresses T2, SARS-CoV-2 S protein trimer (SARS-CoV-2, UniProt P0DTC2 14-1208). Briefly: SPR.
In experiment [4] the target is T3, SARS-CoV-2 S1 protein (SARS-CoV-2, UniProt P0DTC2 16-685). Put plainly: SPR.
The target in experiment [5] is T1, SARS-CoV-2 membrane protein. Briefly: SPR. The source holds these as a separate data set.
In experiment [6] the target is T2, SARS-CoV-2 S protein trimer. Briefly: SPR. This is another data set of the same source.
The target in experiment [7] is T3, SARS-CoV-2 S1 protein. Briefly: SPR. The source holds these as a separate data set.

Like-named read-outs stand apart in the source and are kept apart here.

ACE2, sequence (Q9BYF1 18-740): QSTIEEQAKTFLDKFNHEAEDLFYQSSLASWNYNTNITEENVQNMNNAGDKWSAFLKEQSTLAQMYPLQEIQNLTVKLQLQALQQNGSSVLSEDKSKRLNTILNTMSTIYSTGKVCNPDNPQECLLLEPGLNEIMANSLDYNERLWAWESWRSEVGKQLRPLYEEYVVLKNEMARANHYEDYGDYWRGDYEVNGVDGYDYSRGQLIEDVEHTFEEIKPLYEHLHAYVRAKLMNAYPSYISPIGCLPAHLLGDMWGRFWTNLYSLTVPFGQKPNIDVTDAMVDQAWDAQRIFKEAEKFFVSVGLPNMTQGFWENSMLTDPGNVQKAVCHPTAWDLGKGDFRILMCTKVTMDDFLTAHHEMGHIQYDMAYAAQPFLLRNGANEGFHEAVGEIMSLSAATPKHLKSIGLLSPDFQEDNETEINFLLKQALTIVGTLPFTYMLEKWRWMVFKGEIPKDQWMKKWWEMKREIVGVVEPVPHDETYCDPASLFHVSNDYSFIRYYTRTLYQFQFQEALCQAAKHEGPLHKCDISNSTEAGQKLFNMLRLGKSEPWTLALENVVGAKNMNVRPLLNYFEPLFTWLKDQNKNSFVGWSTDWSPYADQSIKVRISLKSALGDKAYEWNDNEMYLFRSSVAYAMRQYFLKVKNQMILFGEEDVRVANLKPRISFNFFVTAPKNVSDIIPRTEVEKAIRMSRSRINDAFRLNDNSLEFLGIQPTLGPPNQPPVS
human ACE2, sequence (Q9BYF1 18-740): as above

B1: ACE2 variant antibody 4-49 (VHH)
VHH: EVQLVESGGGLVQPGGSLRLSCAASGRTFGDYIMGWFRQAPGKERESVAAINWSAGYTAYADSVKGRFTISADNSKNTAYLQMNSLKPEDTAVYYCARASPNTGWHFDHWGQGTLVTVSS
The term Kd denotes a measure of binding affinity in units of concentration. Read a high Kd as a looser complex. Take B1: the Kd in the experiment with ACE2 was determined as 2.3 nM. That is a single-digit nanomolar value.

B2: 10-28 (antibody, V domains shown)
VH: EVQLVESGGGLVQPGGSLRLSCAASGSIFSIGMGWFRQAPGKEREFVARIWWRSGATYYADSVKGRFTISADNSKNTAYLQMNSLKPEDTAVYYCAAISIFGRLKWGQGTLVTVSS
On to B2, for which the Kd in experiment [1] and in experiment [2] was 5.6 nM in each case.

B3: 10-27 (antibody, V domains shown)
VH: EVQLVESGGGLVQPGGSLRLSCAASGRTFRRYSMGWFRQAPGKEREFVASITPGGNTNYADSVKGRFTISADNSKNTAYLQMNSLKPEDTAVYYCASRRRWLTPYIFWGQGTLVTVSS
On to B3, for which, in [1], binding was characterised by a dissociation constant (Kd) of 5.7 nM.

B4: 3-7 (antibody, V domains shown)
VH: EVQLLESGGGLVQPGGSLRLSCAASGFMFGNYAMSWVRQAPGKGLEWVAAISGSGGSTYYADSVKGRFTISRDNSKNTLYLQMNSLRAEDTAVYYCAKDRGYSSSWYGGFDYWGQGTLVTVSS
VL: DIQMTQSPSSLSASVGDRVTITCRASQSIGRYLNWYQQKPGKAPKLLIYASSSLQSGVPSRFSGSGSGTDFTLTISSLQPEDFATYYCQQSYSLPRTFGQGTKVEIK
In the experiment with human ACE2, B4 yielded a Kd of 0.326 nM.

B5: 2-9 (antibody, V domains shown)
VH: EVQLLESGGGLVQPGGSLRLSCAASGFTFPRYAMSWVRQAPGKGLEWVSTISGSGSTTYYADSVKGRFTISRDNSKNTLYLQMNSLRAEDTAVYYCARLIDAFDIWGQGTLVTVSS
VL: DIQMTQSPSSLSASVGDRVTITCRASQRIGTYLNWYQQKPGKAPKLLIYAASNLEGGVPSRFSGSGSGTDFTLTISSLQPEDFATYYCQQNYSTTWTFGQGTKVEIK
By IC50 is commonly meant the concentration that gives 50% inhibition. Read a low IC50 as inhibition by little substance. On to B5, for which, in the experiment with SARS-CoV-2 S1 RBD, the IC50 was found to be 4.69 nM.

B6: 9-11 (antibody, V domains shown)
VH: EVQLVESGGGLVQPGGSLRLSCAASGRTFGRRAMGWFRQAPGKEREFVAGISRGGGTNYADSVKGRFTISADNSKNTAYLQMNSLKPEDTAVYYCAAKGIWDYLGRRDFGDWGQGTLVTVSS
In the case of B6, in [1], the affinity, expressed as Kd, was 0.593 nM.

B7: 2-2 (antibody, V domains shown)
VH: EVQLLESGGGLVQPGGSLRLSCAASGFTFSRHAMNWVRQAPGKGLEWVSGISGSGDETYYADSVKGRFTISRDNSKNTLYLQMNSLRAEDTAVYYCARDLPASYYDSSGYYWHNGMDVWGQGTLVTVSS
VL: DIQMTQSPSSLSASVGDRVTITCRASQTINTYLNWYQQKPGKAPKLLIYSASTLQSGVPSRFSGSGSGTDFTLTISSLQPEDFATYYCQQSYSTFTFGQGTKVEIK
In the experiment with SARS-CoV-2 S1 RBD, B7 returned an IC50 of 1.26 nM. The figures for the Kd (in experiment [3]; with SARS-CoV-2 S1 protein [4]) were 0.143 nM and 74 nM, respectively.

B8: 10-20 (antibody, V domains shown)
VH: EVQLVESGGGLVQPGGSLRLSCAASGRTIRTMGWFRQAPGKEREFVATINSRGITNYADSVKGRFTISADNSKNTAYLQMNSLKPEDTAVYYCTTERDGLLWFRELFRPSWGQGTLVTVSS
For the molecule B8, binding in experiment [5] was put at a Kd of 66 nM.

B9: 2-6 (antibody, V domains shown)
VH: EVQLLESGGGLVQPGGSLRLSCAASGFTFSNYPMNWVRQAPGKGLEWVSTISGSGGNTFYADSVKGRFTISRDNSKNTLYLQMNSLRAEDTAVYYCVRHDEYSFDYWGQGTLVTVSS
VL: DIQMTQSPSSLSASVGDRVTITCRASQSIDTYLNWYQQKPGKAPKLLIYAASALASGVPSRFSGSGSGTDFTLTISSLQPEDFATYYCQQSYSAPPYTFGQGTKVEIK
Turning to B9, the IC50 with SARS-CoV-2 S1 RBD was 0.754 nM. Moreover, the Kd in experiment [3] was 0.036 nM; with SARS-CoV-2 S1 protein [4] it was 7.2 nM; in experiment [6], below 0.036 nM; in the experiment with SARS-CoV-2 S1 protein [7], 7.2 nM.

B10: 2-5 (antibody, V domains shown)
VH: EVQLLESGGGLVQPGGSLRLSCAASGFTFSDFAMAWVRQAPGKGLEWVSAISGSGDITYYADSVKGRFTISRDNSKNTLYLQMNSLRAEDTAVYYCAREADGLHSPWHFDLWGQGTLVTVSS
VL: DIQMTQSPSSLSASVGDRVTITCRASQSIHTYLNWYQQKPGKAPKLLIYAASALASGVPSRFSGSGSGTDFTLTISSLQPEDFATYYCQQSYSAPPYTFGQGTKVEIK
Molecule B10 displayed an IC50 with SARS-CoV-2 S1 RBD of 3.83 nM. The Kd in experiment [3] came to 1.7 nM; with SARS-CoV-2 S1 protein [4] it was 0.223 nM.
